Reference: paper PMC7495468

Molecular target: HKU1-A HE ectodomain (human coronavirus HKU1 haemagglutinin-esterase, type A) (human coronavirus HKU1 (type A))
Experiment: […] (4 mg/ml; SEC buffer 10 mM Tris-HCl pH 8, 50 mM NaCl), […]

HKU1-A HE ectodomain (human coronavirus HKU1 haemagglutinin-esterase, type A) (domain or fragment)
stoichiometry N: 2
